The target in the test is oxidised human Prdx6 (Peroxiredoxin 6), peroxidatic cysteine in the sulfenic acid form (human) (UniProt P30041). Nature of the test: SEC; Sephadex G-75, 20 mM Tris-HCl pH 7.0, 500 ul of 2 mg/ml protein, void volume by Blue dextran. In general terms: Size exclusion chromatography separates by hydrodynamic size, large species first.

Regarding “oxidised human Prdx6 (Peroxiredoxin 6), peroxidatic cysteine in the sulfenic acid form (from UniProt P30041 1-224) (enzyme)”, the stoichiometry N (usually a count of units in the complex or per binding partner) was 2.

The values are drawn from PMC7566464.
